Numbering of substitutions follows the chain as printed.
T1: AAV8 (adeno-associated virus 8, Assembled 60-mer capsid of VP1/VP2/VP3 (nested products of one cap gene), amine-coupled to a CM5 chip; the letters give one VP1 subunit only.)
T1 construct: also called adeno-associated virus serotype 8
T1 chain: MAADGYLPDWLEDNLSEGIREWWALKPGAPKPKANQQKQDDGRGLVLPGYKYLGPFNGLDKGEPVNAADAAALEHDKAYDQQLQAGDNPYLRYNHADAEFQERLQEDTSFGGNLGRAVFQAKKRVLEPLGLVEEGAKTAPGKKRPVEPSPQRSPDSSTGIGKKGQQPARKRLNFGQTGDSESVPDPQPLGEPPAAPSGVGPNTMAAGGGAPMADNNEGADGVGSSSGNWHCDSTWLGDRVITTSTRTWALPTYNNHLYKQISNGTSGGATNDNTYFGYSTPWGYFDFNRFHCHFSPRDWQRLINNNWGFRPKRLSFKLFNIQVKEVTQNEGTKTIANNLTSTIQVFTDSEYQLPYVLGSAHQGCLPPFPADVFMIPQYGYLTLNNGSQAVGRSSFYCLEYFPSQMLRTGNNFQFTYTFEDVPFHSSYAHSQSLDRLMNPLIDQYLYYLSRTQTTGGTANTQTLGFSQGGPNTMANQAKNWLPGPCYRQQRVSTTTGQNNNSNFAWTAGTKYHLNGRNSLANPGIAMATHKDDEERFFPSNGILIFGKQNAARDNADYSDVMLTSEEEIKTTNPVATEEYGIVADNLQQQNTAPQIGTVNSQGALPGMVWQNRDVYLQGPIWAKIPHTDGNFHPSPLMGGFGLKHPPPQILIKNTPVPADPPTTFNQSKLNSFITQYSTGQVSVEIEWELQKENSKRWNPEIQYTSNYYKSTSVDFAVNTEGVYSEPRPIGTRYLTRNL

B1: A4-C4 (bispecific antibody)
chain: VQLQESGGGLVQAGGSLRLSCAASGSRFSINTMGWYRQAPGKQREFVATVTRGGNTNYAESVKGRFTISRDNAKNTVYLQMNSLRPEDTAVYYCHVDEVRDSSWTTSNIWGQGTQVTVSSGGGGSGGGGSGGGGSVQLQESGGGLVQAGGSLRLSCAASGSRFSINTMGWYRQAPGKQREFVATVTRGGNTNYAESVKGRFTISRDNAKNTVYLQMNSLRPEDTAVYYCHVDEVRDSSWTTSNIWGQGTQVTVSSGGGGSGGGGSGGGGSVQLQESGGGLVQPGGSLRLSCAASGSNFRINTMGWYRQAPGKQRELVATVTRGGSTNYADSVKGRFTISRDNPKDTVYLQMNSLRPEDTAVYYCHVDEVRESSWTTSNLWGQGTQVTVSS
B2: A4-C9 (bispecific antibody)
chain: VQLQESGGGLVQPGGSLRLSCAASGSNFSINTMGWYRQAPGKQRELVATVTRGGDTNYADSVKGRFTISRDNAKNTVYLQMNSLRPEDTAVYYCHVDEIRESSWTTSNLWGQGTQVTVSSGGGGSGGGGSGGGGSVQLQESGGGLVQPGGSLRLSCAASGSNFSINTMGWYRQAPGKQRELVAALTRGGSTNYADSVKGRFTISRDNAKNTVYLQMNSLRPEDTAVYYCHVDEVRESSWTTSNLWGQGTQVTVSSGGGGSGGGGSGGGGSVQLQESGGGLVQPGGSLRLSCAASGSNFRINTMGWYRQAPGKQRELVAPVTRGGSTNYADSVKGRFTISRDNAKNTVYLQMNSLRPEDTAVYYCHVDEVRESSWTTSNLWGQGTQVTVSS
B3: A4-C5 (bispecific antibody)
chain: B2 chain with S29R, D55S, A73P, I99V, A184T, L185V, S190D, V234I, P319T, A343P
B4: A4-C2 (VHH)
chain: VQLQESGGGLVQPGGSLRLSCAASGSAFSINTMGWYRQAPGKQRELVASVTPGGSTNYADSVKGRFTISRDNAKNTIYLQMNSLRPEDTAVYYCHLDEVRESSWTTSNLWGQGTQVTVSSGGGGSGGGGSGGGGSVQLQESGGGLVQPGGSLRLSCAASGSAFSINTMGWYRQAPGKQRELVASVTPGGSTNYADSVKGRFTISRDNAKNTIYLQMNSLRPEDTAVYYCHLDEVRESSWTTSNLWGQGTQVTVSSGGGGSGGGGSGGGGSVQLQESGGGLVQPGGSLRLSCAASGSAFSINTMGWYRQAPGKQRELVASVTPGGSTNYADSVKGRFTISRDNAKNTIYLQMNSLRPEDTAVYYCHLDEVRESSWTTSNLWGQGTQVTVSS
B5: A4-C1 (VHH)
chain: VQLQESGGGLVQPGGSLRLSCAASGSGFSINTMGWYRQAPGKQRELVATVTRDGSTNYADFVKGRFTISRDNAKNTVYLQMNSLRPEDTAVYYCHLDEVRESSWTTSNLWGQGTQVTVSSGGGGSGGGGSGGGGSVQLQESGGGLVQPGGSLRLSCAASGSGFSINTMGWYRQAPGKQRELVATVTRDGSTNYADFVKGRFTISRDNAKNTVYLQMNSLRPEDTAVYYCHLDEVRESSWTTSNLWGQGTQVTVSSGGGGSGGGGSGGGGSVQLQESGGGLVQPGGSLRLSCAASGSGFSINTMGWYRQAPGKQRELVATVTRDGSTNYADFVKGRFTISRDNAKNTVYLQMNSLRPEDTAVYYCHLDEVRESSWTTSNLWGQGTQVTVSS

These binders were tested against T2, AAV9 (adeno-associated virus 9, Assembled 60-mer capsid of VP1/VP2/VP3 (nested products of one cap gene), amine-coupled to a CM5 chip; the letters give one VP1 subunit only.) (assay: SPR, AAV amine-coupled to CM5 chip).
T2 construct: also called adeno-associated virus serotype 9

Going from B1 to B2, the Kd falls from 1.87 nM to 0.669 nM (2.8-fold). The second binds more tightly here.

First: B3
Second: B4
The Kd of the first is 3.5-fold higher: 1.68 nM for the first, 0.486 nM for the second. The second binds more tightly here.

For B5, the Kd was no more than 1.03 nM.

Going from B1 to B2, the koff falls from 0.00031 s⁻¹ to 0.00013 s⁻¹ (2.4-fold).

Going from B3 to B4, the koff falls from 0.0002 s⁻¹ to 0.000125 s⁻¹ (1.6-fold).

With B5 the koff was no more than 1e-05 s⁻¹.

B1 and B2 are within 1.5-fold of each other in kon: 165000 M⁻¹ s⁻¹ for the first, 194000 M⁻¹ s⁻¹ for the second.

Compared with B3, B4 is 2.2-fold higher in kon: 119000 M⁻¹ s⁻¹ for the first, 257000 M⁻¹ s⁻¹ for the second.

B5 showed a kon of 9690 M⁻¹ s⁻¹.

Biological target: T1, AAV8
Test: SPR, AAV amine-coupled to CM5 chip

Compared with B1, B2 is 2.1-fold lower in Kd: 2.36 nM for the first, 1.14 nM for the second. The second binds more tightly here.

Going from B3 to B4, the Kd falls from 4.97 nM to 0.359 nM (14-fold). The second binds more tightly here.

B5 showed a Kd of 9.2 nM.

Compared with B1, B2 is 1.9-fold lower in koff: 0.00025 s⁻¹ for the first, 0.00013 s⁻¹ for the second.

Compared with B3, B4 is 18-fold lower in koff: 0.00091 s⁻¹ for the first, 5e-05 s⁻¹ for the second.

B5 gave a koff of 0.00164 s⁻¹.

B1 and B2 are within 1.5-fold of each other in kon: 106000 M⁻¹ s⁻¹ for the first, 114000 M⁻¹ s⁻¹ for the second.

B3 and B4 are within 1.5-fold of each other in kon: 183000 M⁻¹ s⁻¹ for the first, 139000 M⁻¹ s⁻¹ for the second.

In the case of B5, the kon is reported as 178000 M⁻¹ s⁻¹.

These binders were tested against T3, AAV5 (adeno-associated virus 5, Assembled 60-mer capsid of VP1/VP2/VP3 (nested products of one cap gene), amine-coupled to a CM5 chip; the letters give one VP1 subunit only.) (assay: SPR, AAV amine-coupled to CM5 chip).
T3 construct: also called adeno-associated virus serotype 5

Compared with B1, B2 is 8.6-fold lower in Kd: 6.72 nM for the first, 0.777 nM for the second. The second binds more tightly here.

Compared with B3, B4 is 11-fold lower in Kd: 7.86 nM for the first, 0.691 nM for the second.

B5 gave a Kd of 13.2 nM.

Compared with B1, B2 is 24-fold lower in koff: 0.00121 s⁻¹ for the first, 5e-05 s⁻¹ for the second.

First: B3
Second: B4
The koff of the first is 9.7-fold higher: 0.0013 s⁻¹ for the first, 0.000134 s⁻¹ for the second.

B5 showed a koff of 0.00138 s⁻¹.

First: B1
Second: B2
The kon of the first is 2.8-fold higher: 180000 M⁻¹ s⁻¹ for the first, 64300 M⁻¹ s⁻¹ for the second.

B3 and B4 are within 1.5-fold of each other in kon: 165000 M⁻¹ s⁻¹ for the first, 194000 M⁻¹ s⁻¹ for the second.

In the case of B5, the kon is reported as 104000 M⁻¹ s⁻¹.

From US20260062463A1 (KANGYUAN BIOMEDICAL TECH DALIAN, published 2026)
